Reference: US20190309059A1 (SHANGHAI PHARMAEXPLORER, published 2019)

Columns and labels:
[1] = molecular target: his-labeled human IL-13 (immunogen A) (human) (UniProt P35225); experiment: FACS blocking, biotin-IL-13 on IL-13Ra1/IL-4Ra HEK293 cells; antibody at 6.67 nM
[2] = molecular target: his-labeled human IL-13 (immunogen A) (human) (UniProt P35225); experiment: FACS blocking, biotin-IL-13 on IL-13Ra1/IL-4Ra HEK293 cells; antibody at 0.05 nM
[3] = molecular target: his-labeled human IL-13R130Q variant (human) (UniProt P35225); experiment: ELISA, IL-13R130Q variant; antibody at 0.021 nM
[4] = molecular target: his-labeled human IL-13 (immunogen A) (human) (UniProt P35225); experiment: FACS blocking, biotin-IL-13 on IL-13Ra2 HEK293 cells; antibody at 33.33 nM
[5] = molecular target: his-labeled human IL-13 (immunogen A) (human) (UniProt P35225); experiment: FACS blocking, biotin-IL-13 on IL-13Ra2 HEK293 cells; antibody at 0.002 nM
[6] = molecular target: his-labeled human IL-13 (immunogen A) (human) (UniProt P35225); experiment: FACS blocking, biotin-IL-13 on IL-13Ra2 HEK293 cells; antibody at 0.01 nM
[7] = molecular target: his-labeled human IL-13R130Q variant (human) (UniProt P35225); experiment: ELISA, IL-13R130Q variant; antibody at 0.53 nM
[8] = molecular target: his-labeled human IL-13 (immunogen A) (human) (UniProt P35225); experiment: FACS blocking, biotin-IL-13 on IL-13Ra2 HEK293 cells; antibody at 166.67 nM
[9] = molecular target: cynomolgus IL-13 (purchased from sino biological) (cynomolgus) (UniProt Q0PW92); experiment: ELISA, cynomolgus IL-13; antibody at 0.53 nM
[10] = molecular target: his-labeled human IL-13 (immunogen A) (human) (UniProt P35225); experiment: cell-based or functional assay
[11] = molecular target: cynomolgus IL-13 (purchased from sino biological) (cynomolgus) (UniProt Q0PW92); experiment: ELISA, cynomolgus IL-13; antibody at 2.67 nM
[12] = molecular target: his-labeled human IL-13 (immunogen A) (human) (UniProt P35225); experiment: SPR (Biacore)
[13] = molecular target: his-labeled human IL-13 (immunogen A) (human) (UniProt P35225); experiment: FACS blocking, biotin-IL-13 on IL-13Ra2 HEK293 cells; antibody at 1.33 nM
[14] = molecular target: his-labeled human IL-13 (immunogen A) (human) (UniProt P35225); experiment: FACS blocking, biotin-IL-13 on IL-13Ra1/IL-4Ra HEK293 cells; antibody at 33.33 nM
[15] = molecular target: his-labeled human IL-13 (immunogen A) (human) (UniProt P35225); experiment: FACS blocking, biotin-IL-13 on IL-13Ra1/IL-4Ra HEK293 cells; antibody at 0.01 nM
[16] = molecular target: his-labeled human IL-13R130Q variant (human) (UniProt P35225); experiment: ELISA, IL-13R130Q variant; antibody at 2.67 nM
[17] = molecular target: cynomolgus IL-13 (purchased from sino biological) (cynomolgus) (UniProt Q0PW92); experiment: ELISA, cynomolgus IL-13; antibody at 0.021 nM
[18] = molecular target: his-labeled human IL-13 (immunogen A) (human) (UniProt P35225); experiment: FACS blocking, biotin-IL-13 on IL-13Ra1/IL-4Ra HEK293 cells; antibody at 166.67 nM
[19] = molecular target: his-labeled human IL-13 (immunogen A) (human) (UniProt P35225); experiment: FACS blocking, biotin-IL-13 on IL-13Ra2 HEK293 cells; antibody at 6.67 nM
[20] = molecular target: his-labeled human IL-13 (immunogen A) (human) (UniProt P35225); experiment: FACS blocking, biotin-IL-13 on IL-13Ra1/IL-4Ra HEK293 cells; antibody at 0.27 nM
[21] = molecular target: cynomolgus IL-13 (purchased from sino biological) (cynomolgus) (UniProt Q0PW92); experiment: ELISA, cynomolgus IL-13; antibody at 0.004 nM
[22] = molecular target: his-labeled human IL-13 (immunogen A) (human) (UniProt P35225); experiment: FACS blocking, biotin-IL-13 on IL-13Ra2 HEK293 cells; antibody at 0.05 nM
[23] = molecular target: his-labeled human IL-13 (immunogen A) (human) (UniProt P35225); experiment: FACS blocking, biotin-IL-13 on IL-13Ra1/IL-4Ra HEK293 cells; antibody at 1.33 nM
[24] = molecular target: his-labeled human IL-13 (immunogen A) (human) (UniProt P35225); experiment: FACS blocking, biotin-IL-13 on IL-13Ra1/IL-4Ra HEK293 cells; antibody at 0.002 nM
[25] = molecular target: his-labeled human IL-13R130Q variant (human) (UniProt P35225); experiment: ELISA, IL-13R130Q variant; antibody at 0.11 nM
[26] = molecular target: his-labeled human IL-13 (immunogen A) (human) (UniProt P35225); experiment: FACS blocking, biotin-IL-13 on IL-13Ra2 HEK293 cells; antibody at 0.27 nM

Sequence of cynomolgus IL-13 (purchased from sino biological) (cynomolgus) (Q0PW92 entry or part of it): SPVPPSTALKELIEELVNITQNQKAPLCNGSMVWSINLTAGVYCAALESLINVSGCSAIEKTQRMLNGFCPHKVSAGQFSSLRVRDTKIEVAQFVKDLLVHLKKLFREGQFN
Sequence of his-labeled human IL-13R130Q variant (human) (P35225 other isoform, or with tags, fused parts or gaps mutant): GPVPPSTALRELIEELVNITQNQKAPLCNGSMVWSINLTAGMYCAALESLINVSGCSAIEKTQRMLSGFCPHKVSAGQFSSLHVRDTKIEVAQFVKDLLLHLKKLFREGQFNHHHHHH

mean fluorescence intensity [1]: 28.3
mean fluorescence intensity [2]: 90.3
OD450 nm [3]: 0.4
mean fluorescence intensity [4]: 22.8
mean fluorescence intensity [5]: 101
mean fluorescence intensity [6]: 95.9
OD450 nm [7]: 2.46
mean fluorescence intensity [8]: 20.4
OD450 nm [9]: 2.68
Periostin (pg/mL), MRCS cells + IL-13 5 ng/mL; antibody at 0.0002 nM [10]: 6190 pg/mL
Periostin (pg/mL), MRCS cells + IL-13 5 ng/mL; antibody at 0.001 nM [10]: 4630 pg/mL
Periostin (pg/mL), MRCS cells + IL-13 5 ng/mL; antibody at 0.004 nM [10]: 3480 pg/mL
Periostin (pg/mL), MRCS cells + IL-13 5 ng/mL; antibody at 0.021 nM [10]: 3570 pg/mL
Periostin (pg/mL), MRCS cells + IL-13 5 ng/mL; antibody at 0.11 nM [10]: 3220 pg/mL
Periostin (pg/mL), MRCS cells + IL-13 5 ng/mL; antibody at 0.53 nM [10]: 1450 pg/mL
Periostin (pg/mL), MRCS cells + IL-13 5 ng/mL; antibody at 2.67 nM [10]: 927 pg/mL
Periostin (pg/mL), MRCS cells + IL-13 5 ng/mL; antibody at 13.3 nM [10]: 1150 pg/mL
TARC (pg/mL), A549 cells + IL-13 + TNFα; antibody at 0.001 nM [10]: 3160 pg/mL
TARC (pg/mL), A549 cells + IL-13 + TNFα; antibody at 0.004 nM [10]: 2950 pg/mL
TARC (pg/mL), A549 cells + IL-13 + TNFα; antibody at 0.021 nM [10]: 2730 pg/mL
TARC (pg/mL), A549 cells + IL-13 + TNFα; antibody at 0.11 nM [10]: 1850 pg/mL
TARC (pg/mL), A549 cells + IL-13 + TNFα; antibody at 0.53 nM [10]: 655 pg/mL
TARC (pg/mL), A549 cells + IL-13 + TNFα; antibody at 2.67 nM [10]: 159 pg/mL
TARC (pg/mL), A549 cells + IL-13 + TNFα; antibody at 13.3 nM [10]: 50 pg/mL
TARC (pg/mL), A549 cells + IL-13 + TNFα; antibody at 66.7 nM [10]: 36 pg/mL
VCAM-1 fluorescence intensity, HUVEC + IL-13 0.5 ng/mL + TNFα; antibody at 0.0002 nM [10]: 364
VCAM-1 fluorescence intensity, HUVEC + IL-13 0.5 ng/mL + TNFα; antibody at 0.001 nM [10]: 373
VCAM-1 fluorescence intensity, HUVEC + IL-13 0.5 ng/mL + TNFα; antibody at 0.004 nM [10]: 393
VCAM-1 fluorescence intensity, HUVEC + IL-13 0.5 ng/mL + TNFα; antibody at 0.021 nM [10]: 409
VCAM-1 fluorescence intensity, HUVEC + IL-13 0.5 ng/mL + TNFα; antibody at 0.11 nM [10]: 251
VCAM-1 fluorescence intensity, HUVEC + IL-13 0.5 ng/mL + TNFα; antibody at 0.53 nM [10]: 265
VCAM-1 fluorescence intensity, HUVEC + IL-13 0.5 ng/mL + TNFα; antibody at 2.67 nM [10]: 246
VCAM-1 fluorescence intensity, HUVEC + IL-13 0.5 ng/mL + TNFα; antibody at 13.3 nM [10]: 186
OD450 nm [11]: 3.2
Kd [12]: < 90 nM
mean fluorescence intensity [13]: 34.6
mean fluorescence intensity [14]: 20.2
mean fluorescence intensity [15]: 101
OD450 nm [16]: 2.92
OD450 nm [17]: 0.408
mean fluorescence intensity [18]: 20
mean fluorescence intensity [19]: 25
mean fluorescence intensity [20]: 72.6
OD450 nm [21]: 0.17
mean fluorescence intensity [22]: 81.6
mean fluorescence intensity [23]: 45.7
mean fluorescence intensity [24]: 105
OD450 nm [25]: 1.23
mean fluorescence intensity [26]: 56.3
B1: c29D9H8 (mouse-human chimeric IL-13 antibody) (antibody, V domains shown)
VH: QVQLQQSGAELVRPGASVTLSCKASGYTFTDYEMHWVKQTPVHGLEWIGGIDPETGGTASNQKFKGKAILTADKSSSTAYMELRSLTSEDSAVYYCTSGDYFGGGPFAYWGQGTLVTVSA
VL: DIKMTQSPSSMYASLGERVTITCKASQDINSYLSWFQQKPGKSPKTLIYRANRLVDGVPSRFSGSGSGQDYSLTISSLDYEDMGIYYCLQYDEFPYTFGGGTKLEIK
